How the values were obtained:
MS2 coat protein [1] = assay: apparent KD of MS2 coat protein, switch OFF state (with FMN for OFF switches, without FMN for ON switches); designed switch direction (-1 OFF switch, 1 ON switch): -1; higher = weaker reporter binding; details: FMN input: 0 or 200 uM; Eterna round: R93 (includes R88 designs)
Method in brief: (§1)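 Illumina sequencing clusters were used for on-chip transcription of designed RNA switches. Titration with SNAP-549-labelled MS2 coat protein followed, in twofold steps from 0.7 or 1.5 nM to 3 µM in 100 mM Tris-HCl pH 7.5, 80 mM KCl, 4 mM MgCl2, without or with constant ligand. Apparent KD is each design's median of fits to normalised cluster binding curves.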

MS2 coat protein [2] = assay: apparent KD of MS2 coat protein, switch ON state; designed switch direction (-1 OFF switch, 1 ON switch): -1; higher = weaker reporter binding; details: FMN input: 0 or 200 uM; Eterna round: R93 (includes R88 designs)
Method in brief: as §1

| Sequence | apparent KD of MS2 coat protein (MS2 coat protein [1]) [µM] | apparent KD of MS2 coat protein (MS2 coat protein [2]) [µM] |
| --- | --- | --- |
| AACAAACAUGAGGAUCACCCAUGUCAGGAUAUGCAAAUAACAAACAACAAACAACAAAGCAGAAGGGACGACAA [Mat - Exclusion 1 - Eli mod - D51] | 0.0256 | 0.0221 |
| AAAAAACAUGAGGAUCACCCAUGUAAGGAUAUGUAAAAUAAAAGAAAAAUAAAGAAAAGCAGAAGGUACAAGAA [JL wbt mod 18] | 0.0234 | 0.0371 |
| AAAAAAAGAGGAUAUACAUGAGAAAAAAAAAUGUAAAAAAAACAUGAGGAUCACCCAUGUAGAAGGCUUAAAAA [Ecxl-I] | 0.0483 | 0.0335 |
| AAGAAGUCAGGAUAUGCGAAGGCGUCUGAUAGACGAGGCUAGCAGAAGGGACAUGAGGAUCACCCAUGUAAAGA [Mat - Exclusion 4 - D83] | 0.055 | 0.045 |
| AAAAAGUGAGGAUAUUCGGAUAGGAAAACGAAAACCUAUCCGAAGAAGGCACAUGAGGAUCACCCAUGUGGAAA [67% Ecls-II - Early G + late G segment 2] | 0.0276 | 0.0226 |
| AACAGUACAGGAUAUACAUGAGGAUCACCCAUGUGAAAAUUAAGUGGGAGACCACAAAGUAGAAGGGUACUGAA [Mat - Exclusion 3 - Eli mod - D60] | 0.0623 | 0.126 |
| AGCUAGUCAGGAUAUACGAAAAUGUACGAAGCUGAGAAGGGACAUGAGGAUCACCCAUGUAGAAGGGACUAGCA [Diamond 35] | 0.0525 | 0.0392 |
| GAAGAACAUGAGGAUCACCCAUGUCAGGAUAUGCGGAAGGGAAUAAUAACUUCCGGAAGCAGAAGGGACAAGAA [Ex 1 May 49] | 0.06 | 0.0323 |
| GAAAAGUGAGGAUAUACAGAUAAAAAAACGAAAAAAAAUCUGUAGAAGGCACAUGAGGAUCACCCAUGUAAAAG [Mat - Exclusion 4 - Mayanna - D107] | 0.0366 | 0.036 |
| AGUUGGCGAGGAUAUACAUGAGGAUCACCCAUGUGAGAGUAAGAAGUGAGAAAGAGAAGUAGAAGGCGCUAACA [Ruby 54] | 0.284 | 0.0484 |
| AAAACACAUGAGGAUCACCCAUGUGAGGAUAUGAACGAAAAUAAAUAAAAAUAAAAGUUCAGAAGGCACAAAAA [66%, Wbt, 11] | 0.0361 | 0.0242 |
| AAAAAGUCAGGAUAUAUGCGAAAAAUAAAAAAAAUAAAAACAUAGAAGGGACAUGAGGAUCACCCAUGUUAAAA [Ex 4 May 17] | 0.0293 | 0.0447 |
| AAGGGACAUGAGGAUCACCCAUGUCAGGAUAUGAUGCGAAUAAAGAAAGAAGAAAGCAUCAGAAGGGACAAAAA [58%, Disencluded 3, 3] | 0.0576 | 0.0337 |
| AAAGGGUCAGGAUAUGCACGAACAACAAAACAAAUAACGAUGCAGAAGGGACAUGAGGAUCACCCAUGUAUAAA [May 75] | 0.0521 | 0.0334 |
| AGAAAGUCAGGAUAUCAGAAACUAGUCGAAACGACUAGAAAUGAGAAGGGACAUGAGGAUCACCCAUGUAAGAA [Ex4 sub 2] | 0.0431 | 0.0463 |
| AAAAAGUGAGGAUAUACGGUGUGGAGUAGACACAACCAGGCGUAGAAGGCACAUGAGGAUCACCCAUGUCCAAA [EX4 Malc#15] | 0.0291 | 0.0259 |
| AAAAAACAUGAGGAUCACCCAUGUAAGGAUAUGCCUAAAAAAAAAAAAAAAAAAAAUGGCAGAAGGUGCAAAAA [excalibur15] | 0.0353 | 0.0416 |
| AGUUGGCGAGGAUAUACAUGAGGAUCACCCAUGUGAGAGAAAAAAGUGAGAAAGAAAAGUAGAAGGCGCUGACA [Norbert Elias] | 0.202 | 0.0492 |
| AAAAAGUGAGGAUAUGUCAAAAGUCACAAAAGUGACAAAAGACAGAAGGCACAUGAGGAUCACCCAUGUGGGAA [Mod of Eli - Late G + early G segment 1] | 0.121 | 0.0561 |
| ACUAAUGAAGGAUAUACAAACAACAAACACACAACACACACACAUGAGGAUCACCCAUGUAGAAGGUCAAACAU [JR_Exc002_Sub1203] | 0.0156 | 0.0158 |

| Sequence | apparent KD of MS2 coat protein (MS2 coat protein [1]) [µM] | apparent KD of MS2 coat protein (MS2 coat protein [2]) [µM] |
| --- | --- | --- |
| ACAAGAUCAGGAUAUACAUGAGGAUCACCCAUGUAAAUCAAAAAGGGACUUACUUAAUGUAGAAGGGAUCAUGU [EX3 279: Random 15] | 0.106 | 0.0286 |
| AAAAUACAUGAGGAUCACCCAUGUCAGGAUAUUCCUGCAGCCUUGAAUAAGGGCUGGUGAAGAAGGGACGGUGA [Ancele] | 0.0846 | 0.0334 |
| AAGAACUCAGGAUAUACAUGAGGAUCACCCAUGUAAAAGAAAGAAGGGAAAGAGAAAAGUAGAAGGGAGAAGAA [Niumateped] | 0.0238 | 0.0175 |
| AAUAAACAUGAGGAUCACCCAUGUGAGGAUAUACAGAUUAUAAGAAAAAAAAAAAAAAGUAGAAGGCACAUAUA [Default title] | 0.0459 | 0.0176 |
| CAGUACUGAGGAUAUACAUGAGGAUCACCCAUGUAUCCAAGCUAGGAAACUAGCAAAAGUAGAAGGCAGUACUG [Ex3: 820] | 0.0655 | 0.0132 |
| AAAAAGUCAGGAUAUACAGAAAAAAAAACGAAAAAAAAUCUGUAGAAGGGACAUGAGGAUCACCCAUGUAAAAA [Ex 4 May 12] | 0.0336 | 0.0476 |
| AAGGUUGGAGGAUAUACAUAGAUACAGAUACAUGUAGACGUACAUGAGGAUCACCCAUGUAGAAGGCCAAUAUA [Mat - Same state - Mayanna Mod - D146] | 0.0886 | 0.137 |
| GAAAAUUGAGGAUAUACGAACAUGUCAAAAGACGUGAAGGGACAUGAGGAUCACCCAUGUAGAAGGCGAAAGAG [Mat - Exclusion 2 - JL mod - D92] | 0.0141 | 0.0586 |
| GAAAGGGCAGGAUAUGCAGAGAGAAAAAAAAAAAAAAAAAAACAUGAGGAUCACCCAUGUAGAAGGGCCGAAAG [salish99-ex2-03] | 0.0481 | 0.0347 |
| AGAAAGUGAGGAUAUACAUGAGGAUCACCCAUGUAGAACGAGAGUUAUAAAAAUGGAAGUAGAAGGCGCAAAAG [water's exclusion 3 2nd] | 0.0348 | 0.0286 |
| AAGAAGCGAGGAUAUACAUGAGGAUCACCCAUGUAAAAGAAAGAAAAGGGAAAGAAAAGUAGAAGGCGCAAGAA [Nebpehtire Ahmose I, Ahmosis I] | 0.177 | 0.053 |
| AACAAGUCAGGAUAUGUUAAAGGUUACGAAAGGGAUAAAGGGCAGAAGGGACAUGAGGAUCACCCAUGUAAUAA [And All that Jazx] | 0.0382 | 0.048 |
| AAAUUGUCAGGAUAUCCUAUAAUAAUAAAAUAGAGGAGAUAGGAGAAGGGACAUGAGGAUCACCCAUGUAAAAC [May 85] | 0.0312 | 0.0377 |
| AGCAAGUAAGGAUAUGCGAAGUCAGGACACACACUGACGAAGCAGAAGGUACAUGAGGAUCACCCAUGUAAGCA [JR_Exclusion-4 65% 3] | 0.0187 | 0.0246 |
| AUGAGAGCAGGAUAUGCAGGUGAGCCGGAAGAAAGAAGAAGACAUGAGGAUCACCCAUGUAGAAGGGCUAGCCC [Madiesxe] | 0.0387 | 0.0419 |
| AUAGUACAUGAGGAUCACCCAUGUCAGGAUAUCGGAUAUGACAUGAAAAAAAUGUUAAUGAGAAGGGACUAUAA [EX1 Malc#18 Mod 1 - Jieux - Exclusion 1] | 0.0636 | 0.0529 |
| AAAGGAUCAGGAUAUGUGUGGGAAAAGUGUGUCCAAAAAAAACAUGAGGAUCACCCAUGUAGAAGGGAUCCAAA [Mod 6 of Normal (20/19) by Nando, Round 1] | 0.265 | 0.487 |
| AAAAAACAUGAGGAUCACCCAUGUGAGGAUAUCGAAAAGUCAAAGAAAAAGACGAAAACGAGAAGGCGCAAAAA [Inspired by Nando] | 0.026 | 0.0237 |
| AGUUGGCGAGGAUAUACAUGAGGAUCACCCAUGUGAAAAAAAAAAGUGAGAAAGAAAAGUAGAAGGCGCUGACA [Mat - Exclusion 3 - Lego mod - D89] | 0.152 | 0.0351 |
| AACAGUACAGGAUAUACAUGAGGAUCACCCAUGUGAAAAUUAAGUGGAGAACCACAAGGUAGAAGGGUACUGGA [Mat - Exclusion 3 - Eli mod - D62] | 0.127 | 0.0424 |

Reference: the supplement of paper PMC9170038
